The values that follow come from publication PMC10123104, “YbiB: a novel interactor of the GTPase ObgE” (Nucleic Acids Research, 2023).

“And” between values parts separate entries of the source, which are not always exact repeats. Equal values may be shown once.

The chains are these.
B1: ObgE C-terminal peptide4-AA (peptide)
peptide: LEEIAEEDDEDADDDADEDD
notes: free termini (H-...-OH); also called SBL-OBGE-06; source: synthetic peptide (in-house Fmoc SPPS, HPLC purified)
B3: full-length E. coli YbiB protein, N-terminally His6-tagged (natural protein, UniProt P30177 1-320, looked up)
chain: MDYRKIIKEIGRGKNHARDLDRDTARGLYAHMLNGEVPDLELGGVLIALRIKGEGEAEMLGFYEAMQNHTIKLTPPAGKPMPIVIPSYNGARKQANLTPLLAILLHKLGFPVVVHGVSEDPTRVLTETIFELMGITPTLHGGQAQAKLDEHQPVFMPVGAFCPPLEKQLAMRWRMGVRNSAHTLAKLATPFAEGEALRLSSVSHPEYIGRVAKFFSDIGGRALLMHGTEGEVYANPQRCPQINLIDREGMRVLYEKQDTAGSELLPQAKDPETTAQWIERCLAGSEPIPESLKIQMACCLVATGEAATISDGLARVNQAF
notes: homodimer; No cleavage of the His6-tag is told; the pull-down names the tag on the protein; also called YbiB WT; TrpD2 protein YbiB; source: E. coli BL21 (DE3) pLysS, purified (HisTrap, SEC); not shown: His6, N-terminal, kept
B4: YbiB (E. coli TrpD2 protein), N-terminally His6-tagged, wild type (natural protein, UniProt P30177 1-320, looked up)
chain: MDYRKIIKEIGRGKNHARDLDRDTARGLYAHMLNGEVPDLELGGVLIALRIKGEGEAEMLGFYEAMQNHTIKLTPPAGKPMPIVIPSYNGARKQANLTPLLAILLHKLGFPVVVHGVSEDPTRVLTETIFELMGITPTLHGGQAQAKLDEHQPVFMPVGAFCPPLEKQLAMRWRMGVRNSAHTLAKLATPFAEGEALRLSSVSHPEYIGRVAKFFSDIGGRALLMHGTEGEVYANPQRCPQINLIDREGMRVLYEKQDTAGSELLPQAKDPETTAQWIERCLAGSEPIPESLKIQMACCLVATGEAATISDGLARVNQAF
notes: YbiB, TrpD2 family protein of Escherichia coli, open reading frame amplified from BW25113 genomic DNA; cloned in pET28a (NheI/EcoRI) behind His6 and a thrombin site; its numbers there are shifted by 1; No thrombin cleavage is described; also called YbiB WT; YbiB dimer; source: E. coli BL21 (DE3) pLysS, purified (HisTrap FF, Superdex 200); not shown: His6, N-terminal, kept

Data set [1] deals with B4. Briefly: ITC; MicroCal iTC200, 25°C, 20 mM HEPES pH 7.5, 150 mM NaCl, 5 mM MgCl2, 1 mM β-mercaptoethanol; ObgE or ObgE-derived peptide in the sample cell (50-75 µM), YbiB (WT or mutant) in the syringe (500 µM-1.4 mM); 'ligand in cell' function; biphasic isotherms fitted on a 'two sets of sites' model; subunit concentrations; parameters of each individual repeat. The note with it: both partners purified.

Data set [2] has as its target T1, ObgE (E. coli Obg GTPase), N-terminally His6-tagged (E. coli, UniProt P42641 1-390).
T1 construct: GTPase ObgE (Obg) of Escherichia coli, 390 residues; also called pET28a-obgE; source: E. coli BL21 (DE3) pLysS, purified (HisTrap FF, alkaline phosphatase treatment, Superdex 75), nucleotide-free; not shown: His6, N-terminal, kept
The description is as above. The note with it: both partners purified.

The target of data set [3] is T2, N-terminally His6-tagged ObgE protein (Escherichia coli Obg) (E. coli, UniProt P42641 1-390).
T2 construct: GTPase ObgE of Escherichia coli, whole protein, ORF in pET28a; monomer by SEC-MALS; nucleotide-free after alkaline phosphatase treatment; also called full-length ObgE; not shown: His6, N-terminal, kept
T2 sequence (P42641 whole entry): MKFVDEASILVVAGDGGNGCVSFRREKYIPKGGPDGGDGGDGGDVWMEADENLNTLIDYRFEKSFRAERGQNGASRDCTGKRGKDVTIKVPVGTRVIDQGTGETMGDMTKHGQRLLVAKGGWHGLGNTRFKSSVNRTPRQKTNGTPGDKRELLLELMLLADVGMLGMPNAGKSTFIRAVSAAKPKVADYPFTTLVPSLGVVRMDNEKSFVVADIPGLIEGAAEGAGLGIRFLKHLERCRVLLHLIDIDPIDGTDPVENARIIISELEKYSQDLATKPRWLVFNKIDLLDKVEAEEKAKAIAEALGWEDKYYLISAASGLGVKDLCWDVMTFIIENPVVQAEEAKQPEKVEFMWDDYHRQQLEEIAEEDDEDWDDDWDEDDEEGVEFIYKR
Briefly: ITC; YbiB in the syringe (500 μM to 1.4 mM) titrated into ObgE constructs or ObgE-derived peptides in the cell (50-75 μM); 25°C; 20 mM HEPES pH 7.5, 150 mM NaCl, 5 mM MgCl2, 1 mM β-mercaptoethanol; 'two sets of sites' model with 'ligand in cell' for biphasic isotherms; subunit concentrations. The note with it: both partners purified. A general note: Isothermal titration calorimetry measures the heat released or taken up as one component is titrated into another.

For data set [4], the target named is T2, N-terminally His6-tagged ObgE protein …. Briefly: SEC-MALS; Superdex 200 5/150 GL increase; ObgE and YbiB alone at 1.5 mg/ml; YbiB and ObgE mixed 1:3 (20 and 60 μM); 20 mM HEPES pH 7.5, 150 mM NaCl, 5 mM MgCl2, 5% glycerol, 2 mM DTT. Particulars: both partners purified. A general note: In gel filtration, larger molecules generally elute earlier.
Data set [5] concerns the molecule itself. The data set is described as above.
Data set [6] addresses T2, N-terminally His6-tagged ObgE protein …. Description: SEC-SAXS; pre-formed YbiB-ObgE complex (mixed 1:3, isolated on Superdex 200, 7.6 mg/ml); 20 mM HEPES pH 7.5, 150 mM NaCl, 5 mM MgCl2, 2 mM DTT, 5% glycerol; molar mass by Bayesian inference. Particulars: both partners purified.
In data set [7] the target is B1. Description: ITC; MicroCal iTC200, 25°C, 20 mM HEPES pH 7.5, 150 mM NaCl, 5 mM MgCl2, 1 mM β-mercaptoethanol; ObgE or ObgE-derived peptide in the sample cell (50-75 µM), YbiB (WT or mutant) in the syringe (500 µM-1.4 mM); 'ligand in cell' function; biphasic isotherms fitted on a 'two sets of sites' model; subunit concentrations; parameters of each individual repeat. Particulars: both partners purified.

The target in data set [8] is B3. Briefly: ITC; YbiB in the syringe (500 μM to 1.4 mM) titrated into ObgE constructs or ObgE-derived peptides in the cell (50-75 μM); 25°C; 20 mM HEPES pH 7.5, 150 mM NaCl, 5 mM MgCl2, 1 mM β-mercaptoethanol; 'two sets of sites' model with 'ligand in cell' for biphasic isotherms; subunit concentrations. Particulars: both partners purified.

As usually defined, the Kd is the concentration at which binding is half-saturated. Low values mean higher affinity, high ones lower affinity. For orientation: stoichiometry N means a count of units in the complex or per binding partner.

T1 sequence (P42641 whole entry): as above

On to B1, for which the Kd in data set [1] was 10 µM and 15 µM.

B2: YbiB Arg92Glu, N-terminally His6-tagged (natural protein, E. coli, UniProt P30177 1-320, looked up)
chain: MDYRKIIKEIGRGKNHARDLDRDTARGLYAHMLNGEVPDLELGGVLIALRIKGEGEAEMLGFYEAMQNHTIKLTPPAGKPMPIVIPSYNGAEKQANLTPLLAILLHKLGFPVVVHGVSEDPTRVLTETIFELMGITPTLHGGQAQAKLDEHQPVFMPVGAFCPPLEKQLAMRWRMGVRNSAHTLAKLATPFAEGEALRLSSVSHPEYIGRVAKFFSDIGGRALLMHGTEGEVYANPQRCPQINLIDREGMRVLYEKQDTAGSELLPQAKDPETTAQWIERCLAGSEPIPESLKIQMACCLVATGEAATISDGLARVNQAF
notes: no measurement of its oligomeric state is reported; also called YbiB R92E; pET28a-ybiBR92E; source: E. coli BL21 (DE3) pLysS, purified (HisTrap FF, Superdex 200); not shown: His6, N-terminal, kept
With B2, in data set [2], the “stoichiometry N” value is 0.71 and 0.94 and 1.29.
Turning to B3, in data set [3], the “KD of the first (high-affinity) binding event, two sets of sites” value was 0.022 ± 0.001 µM. The “KD of the second (low-affinity) binding event, two sets of sites” value in data set [3] was determined as 5 ± 1 µM. For the same molecule, the “stoichiometry N” value in data set [4] was around 2 ObgE per YbiB dimer; in data set [5] it was 2; in data set [6], 2 ObgE per YbiB dimer.
Turning to B4, the “stoichiometry N” value in data set [7] was 0.66 and 0.632 and 0.64.

B5: YbiB Arg123Glu, N-terminally His6-tagged (natural protein, E. coli, UniProt P30177 1-320, looked up)
chain: MDYRKIIKEIGRGKNHARDLDRDTARGLYAHMLNGEVPDLELGGVLIALRIKGEGEAEMLGFYEAMQNHTIKLTPPAGKPMPIVIPSYNGARKQANLTPLLAILLHKLGFPVVVHGVSEDPTEVLTETIFELMGITPTLHGGQAQAKLDEHQPVFMPVGAFCPPLEKQLAMRWRMGVRNSAHTLAKLATPFAEGEALRLSSVSHPEYIGRVAKFFSDIGGRALLMHGTEGEVYANPQRCPQINLIDREGMRVLYEKQDTAGSELLPQAKDPETTAQWIERCLAGSEPIPESLKIQMACCLVATGEAATISDGLARVNQAF
notes: no measurement of its oligomeric state is reported; also called YbiB R123E; pET28a-ybiBR123E; source: E. coli BL21 (DE3) pLysS, purified (HisTrap FF, Superdex 200); not shown: His6, N-terminal, kept
As for B5, in data set [2], the Kd is 5 µM and 4 µM and 10 µM; the “stoichiometry N” value is 1.14 and 0.99.

B6: ObgE C-terminal peptide4 (residues 361-380 of ObgE) (peptide)
peptide: LEEIAEEDDEDWDDDWDEDD
notes: residues 375-380 (DWDEDD) are resolved in the crystal structure; also called peptide4-WW; SBL-OBGE-03; source: synthetic peptide (Fmoc SPPS, HPLC purified)
With B6, the binding result in data set [8] is listed as “binds”.

B7: peptide4-AA (variant of ObgE peptide4 with both Trp residues substituted by Ala) (peptide, UniProt P42641 361-380, looked up)
peptide: LEEIAEEDDEDADDDADEDD
notes: source: synthetic peptide (Fmoc SPPS, HPLC purified)
The molecule B7 had a Kd in data set [8] of around 10 µM.
